Target: FAR (FXR)-RXRalpha heterodimer (Rattus norvegicus / Homo sapiens, UniProt Q62735;P19793 Q62735:1-469,P19793:1-462)
Experiment: cell_activity; 50 uM JH III, CV-1 cells; 17-fold JH III, 76-fold LG69, 212-fold both in p89; parental MTV reporter lacking EcREs not activated
Settings: tags: CMV-driven expression in CV-1 cells
Description: Thus, with reference to FIG. 5A, CV-1 cells were transiently transfected with hsp27-EcRE×5 MTV-luciferase alone (−) or with expression vectors for rat FAR and/or human RXRα. Reporter activity was assayed after treating cells with or without 50 μM JH III.

Sequence of FAR (FXR)-RXRalpha heterodimer (Q62735 whole entry, chain 1 of 2): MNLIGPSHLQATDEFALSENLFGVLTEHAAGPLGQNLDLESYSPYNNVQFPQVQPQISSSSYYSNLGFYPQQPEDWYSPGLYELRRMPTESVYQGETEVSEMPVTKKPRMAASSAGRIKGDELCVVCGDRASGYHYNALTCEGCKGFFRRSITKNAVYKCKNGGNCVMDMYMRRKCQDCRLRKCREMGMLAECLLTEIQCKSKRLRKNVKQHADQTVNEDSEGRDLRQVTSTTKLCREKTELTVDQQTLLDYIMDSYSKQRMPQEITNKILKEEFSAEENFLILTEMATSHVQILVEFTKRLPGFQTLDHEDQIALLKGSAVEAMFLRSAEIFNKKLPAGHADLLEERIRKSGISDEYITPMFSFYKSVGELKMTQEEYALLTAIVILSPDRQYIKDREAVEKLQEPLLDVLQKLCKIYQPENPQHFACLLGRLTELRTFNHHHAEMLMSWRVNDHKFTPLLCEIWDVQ
Sequence of FAR (FXR)-RXRalpha heterodimer (P19793 whole entry, chain 2 of 2): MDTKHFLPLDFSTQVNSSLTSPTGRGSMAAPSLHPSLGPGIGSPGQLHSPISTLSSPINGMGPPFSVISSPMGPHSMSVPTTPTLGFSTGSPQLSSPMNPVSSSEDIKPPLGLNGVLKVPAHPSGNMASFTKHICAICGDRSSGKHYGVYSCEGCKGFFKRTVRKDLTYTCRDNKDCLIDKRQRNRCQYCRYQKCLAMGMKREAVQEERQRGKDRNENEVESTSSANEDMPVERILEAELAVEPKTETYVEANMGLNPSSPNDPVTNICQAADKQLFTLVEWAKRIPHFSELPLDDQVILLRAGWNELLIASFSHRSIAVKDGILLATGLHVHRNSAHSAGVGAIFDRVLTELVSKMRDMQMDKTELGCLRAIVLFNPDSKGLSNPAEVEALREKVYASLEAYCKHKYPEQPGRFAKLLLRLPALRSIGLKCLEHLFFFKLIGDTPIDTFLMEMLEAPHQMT

B1: hsp27-EcREx5 MTV-luciferase reporter (dsDNA)
DNA 1: GGTTCAATGCACT
DNA 2: AGTGCATTGAACC
- activity: 10 fold

— US6416957, “Method for modulating process mediated by farnesoid activated receptors” (The Salk Institute for Biological Studies)
